Three molecules from patent publication US20250340633A1 (DIATHEVA S R L, published 2025) can be followed below.

Assay [1] addresses T1, CEACAM1 antigen (Diatheva) (UniProt P13688 35-428, limits assumed).
T1 construct: Purchased antigen; also called CEA Cell Adhesion Molecule 1
T1 sequence (looked up): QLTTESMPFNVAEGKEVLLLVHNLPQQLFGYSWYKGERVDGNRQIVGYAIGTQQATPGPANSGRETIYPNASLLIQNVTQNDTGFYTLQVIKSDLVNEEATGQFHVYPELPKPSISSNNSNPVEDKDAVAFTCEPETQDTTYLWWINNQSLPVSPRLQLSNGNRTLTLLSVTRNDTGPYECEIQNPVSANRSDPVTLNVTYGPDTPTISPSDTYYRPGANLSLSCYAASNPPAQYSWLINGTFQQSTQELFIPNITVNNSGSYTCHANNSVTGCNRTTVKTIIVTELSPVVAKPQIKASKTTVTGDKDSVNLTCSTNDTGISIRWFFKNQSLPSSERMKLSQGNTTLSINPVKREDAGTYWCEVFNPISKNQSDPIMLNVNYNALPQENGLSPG
The assay can be described thus: ELISA titration on coated CEACAM1; detection with anti-His6 and anti-mouse HRP. The procedure:
96 wells microtiter plates (MAXISORB NUNC) were coated with 100 μl/well of CEACAM1 antigen (Diatheva) solution 1 μg/ml diluted in PBS pH 7.3 and incubated overnight (ON) at 37° C. Plates were washed five times with PBS added with 0.05% (v/v) Tween 20 pH 7.3 (PBST) (the same washing procedure was repeated after each incubation step during the assays) and then blocked with 1% (w/v) BSA dissolved in PBS (150 μl/well) and maintained at 37° C. for 60 min. After washing, serial dilutions of IgG1 or IgG4 in PBS containing 2% (w/v) not-fat dry milk (PBSM) were added to the plate (100 μl/well) and incubated for 90 min at 37° C. […] Finally, the detection was performed after addition of 2,2′-azino-bis(3-ethylbenzthiazoline-6-sulphonic acid) (ABTS; Roche, 10102946001) as substrate. The absorbance values were read by a microplate reader (Bio-Rad Laboratories) at 405 nm after 45 min. In FIG. 4 are reported the results obtained with IgG1 (black line) and IgG4 (grey line) antibodies purified after transient expression in HEK293T cells. The absorbance of the mock sample is shown by the dotted line. The ELISA assay highlighted a higher affinity for the CEACAM1 antigen of the antibody belonging to the IgG1 subclass compared to the same antibody with the IgG4 (S228P) constant region. […]
Background: ELISA stands for enzyme-linked immunosorbent assay.

Assay [2] has as its target T1, CEACAM1 antigen (Diatheva). As to the kind of experiment: ELISA titration on coated CEACAM1; EC50 of the scFv against that of IgG4 clone 2.
The target of assay [3] is T1, CEACAM1 antigen (Diatheva). The assay can be described thus: ELISA titration on coated CEACAM1; EC50 of the scFv against that of IgG1 clone 12.
Assay [4] has as its target T1, CEACAM1 antigen (Diatheva). The assay can be described thus: ELISA titration on coated CEACAM1; antibody from stable clone 2. The procedure: 96 wells microtiter plates (MAXISORB NUNC) were coated with 100 μl/well of CEACAM1 antigen (Diatheva) solution 1 μg/ml diluted in PBS pH 7.3 and incubated overnight (ON) at 37° C. Plates were washed five times with PBS added with 0.05% (v/v) Tween 20 pH 7.3 (PBST) (the same washing procedure was repeated after each incubation step during the assays) and then blocked with 1% (w/v) BSA dissolved in PBS (150 μl/well) and maintained at 37° C. for 60 min. After washing, serial dilutions of IgG1 or IgG4 in PBS containing 2% (w/v) not-fat dry milk (PBSM) were added to the plate (100 μl/well) and incubated for 90 min at 37° C. After washes, plates were incubated at 37° C. for 60 min with an anti-human Fc antibody HRP conjugated (Meridian) diluted 1:500 v/v in PBSM. Finally, the detection was performed after addition of 2,2′-azino-bis(3-ethylbenzthiazoline-6-sulphonic acid) (ABTS; Roche, 10102946001) as substrate. The absorbance values were read by a microplate reader (Bio-Rad Laboratories) at 405 nm after 45 min. In FIG. […] The absorbance of the mock sample is shown by the dotted line. The ELISA assay highlighted a higher affinity for the CEACAM1 antigen of the antibody belonging to the IgG1 subclass compared to the same antibody with the IgG4 (S228P) constant region. […]

The target of assay [5] is T1, CEACAM1 antigen (Diatheva). The assay can be described thus: ELISA titration on coated CEACAM1; antibody purified after transient expression in HEK293T. The procedure:
Purified antibodies were analysed for their reactivity against CEACAM1 antigen in ELISA titration assay as follow:
(§1) 96 wells microtiter plates (MAXISORB NUNC) were coated with 100 μl/well of CEACAM1 antigen (Diatheva) solution 1 μg/ml diluted in PBS pH 7.3 and incubated overnight (ON) at 37° C. Plates were washed five times with PBS added with 0.05% (v/v) Tween 20 pH 7.3 (PBST) (the same washing procedure was repeated after each incubation step during the assays) and then blocked with 1% (w/v) BSA dissolved in PBS (150 μl/well) and maintained at 37° C. for 60 min. After washing, serial dilutions of IgG1 or IgG4 in PBS containing 2% (w/v) not-fat dry milk (PBSM) were added to the plate (100 μl/well) and incubated for 90 min at 37° C. After washes, plates were incubated at 37° C. for 60 min with an anti-human Fc antibody HRP conjugated (Meridian) diluted 1:500 v/v in PBSM. Finally, the detection was performed after addition of 2,2′-azino-bis(3-ethylbenzthiazoline-6-sulphonic acid) (ABTS; Roche, 10102946001) as substrate. The absorbance values were read by a microplate reader (Bio-Rad Laboratories) at 405 nm after 45 min. In FIG. 4 are reported the results obtained with IgG1 (black line) and IgG4 (grey line) antibodies purified after transient expression in HEK293T cells. The absorbance of the mock sample is shown by the dotted line. […]

Assay [6] has as its target T1, CEACAM1 antigen (Diatheva). As to the kind of experiment: ELISA titration on coated CEACAM1; antibody from stable clone 12. As for the experimental part: as §1

In general, EC50 refers to the midpoint of the concentration-response curve. The low end stands for an effect from little substance, the high end for a need for much substance.

B1: scFvDIATHIS-1 (scFv, V domains shown)
VH: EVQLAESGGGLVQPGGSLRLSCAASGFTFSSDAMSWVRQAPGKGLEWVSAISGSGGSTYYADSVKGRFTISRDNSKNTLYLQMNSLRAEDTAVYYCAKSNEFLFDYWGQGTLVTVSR
VL: SELTQDPAVSVALGQTVRITCQGDSLRSSYASWYRQRPGQAPVPVIYGKNNRPSGIPDRFSGSSSGNTASLTITGAQAEDEADYYCNSSYAWLPYVVFGGGTKLTVLG
notes: Single-chain fragment described in WO2011160859A1; Detection with an anti-His6 antibody implies a His6 tag
In the case of B1, in assay [1], the concentration giving a half-maximal response (EC50) stood at 4.16 µg/mL. In addition, the “fold of EC50 against IgG4” value in assay [2] was approximately 2 fold. Further, in assay [3], the “fold of EC50 against IgG1” value is approximately 4 fold.

B2: IgG4 (S228P) anti-CEACAM1 mAb (antibody, not shown: large carriers)
heavy: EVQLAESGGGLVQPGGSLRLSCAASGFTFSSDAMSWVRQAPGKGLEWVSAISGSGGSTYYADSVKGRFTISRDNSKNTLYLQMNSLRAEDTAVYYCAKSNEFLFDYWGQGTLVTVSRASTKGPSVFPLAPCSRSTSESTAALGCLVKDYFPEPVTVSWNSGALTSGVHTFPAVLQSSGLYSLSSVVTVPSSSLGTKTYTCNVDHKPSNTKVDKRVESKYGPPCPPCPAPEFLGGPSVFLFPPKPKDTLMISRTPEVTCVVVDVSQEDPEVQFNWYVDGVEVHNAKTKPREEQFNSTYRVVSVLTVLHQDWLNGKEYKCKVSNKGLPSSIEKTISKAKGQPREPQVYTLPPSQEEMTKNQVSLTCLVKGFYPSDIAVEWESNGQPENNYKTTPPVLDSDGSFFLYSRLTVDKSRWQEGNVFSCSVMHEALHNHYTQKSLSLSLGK
light: B1 VL
notes: also called IgG4 clone 2
In the case of B2, the half-maximal effective concentration (EC50) in assay [4] was 2.55 µg/mL; in assay [5], 26.7 µg/mL.

B3: DIA-12.3 IgG1 (antibody)
heavy: not shown
light: SELTQDPAVSVALGQTVRITCQGDSLRSSYASWYRQRPGQAPVPVIYGKNNRPSGIPDRFSGSSSGNTASLTITGAQAEDEADYYCNSSYAWLPYVVFGGGTKLTVLGGQPKANPTVTLFPPSSEELQANKATLVCLISDFYPGAVTVAWKADGSPVKAGVETTKPSKQSNNKYAASSYLSLTPEQWKSHRSYSCQVTHEGSTVEKTVAPTECS
notes: The preparation is named under assay in each row; also called IgG1 anti-CEACAM1 mAb; IgG1 clone 12
B3: the EC50 in assay [6] came out at 1.27 µg/mL; in assay [5], 12.8 µg/mL.
